Experimental data as given in paper PMC7999107.

Experiments:
Details in all cases: reference: wild type mice; sites S89
14-3-3 epsilon (14-3-3ε) [1] = molecular target: 14-3-3 epsilon (14-3-3ε) (UniProt P62259); assay: anti-p300 IP, 14-3-3ε immunoblot
β-catenin = β-catenin (UniProt Q02248); assay: anti-p300 IP, β-catenin immunoblot, nuclear extract
14-3-3 epsilon (14-3-3ε) [2] = molecular target: 14-3-3 epsilon (14-3-3ε) (UniProt P62259); assay: anti-14-3-3ε IP, p300 immunoblot

Measured: binding against the reference

p300 (from UniProt B2RWS6) p300 S89A knock-in mice
weaker: all assays above
